FireProtDB (doi:10.1021/ja068849o)

Conditions: Escherichia coli (strain K12); pH 9.2; 37 °C; Urea; Fluorescence; Glycine 10 mM; reversible: Yes; whole UniProt chain shown

B1: Outer membrane protein A wild type, P0A910 (protein)
chain: MKKTAIAIAVALAGFATVAQAAPKDNTWYTGAKLGWSQYHDTGFINNNGPTHENQLGAGAFGGYQVNPYVGFEMGYDWLGRMPYKGSVENGAYKAQGVQLTAKLGYPITDDLDIYTRLGGMVWRADTKSNVYGKNHDTGVSPVFAGGVEYAITPEIATRLEYQWTNNIGDAHTIGTRPDNGMLSLGVSYRFGQGEAAPVVAPAPAPAPEVQTKHFTLKSDVLFNFNKATLKPEGQAALDQLYSQLSNLDPKDGSVVVLGYTDRIGSDAYNQGLSERRAQSVVDYLISKGIPADKISARGMGESNPVTGNTCDNVKQRAALIDCLAPDRRVEIEVKGIKDVVTQPQA
- denaturant m value: 2.2 kcal/mol/M
- denaturant midpoint (higher = more stable): 4.2 M
- unfolding free energy: 9.3 kcal/mol
